Measurements taken from patent US20250277030A1, “ANTI-NAPI2B ANTIBODIES AND METHODS OF USE” (Zymeworks BC Inc., priority 2022, published 2025).

B1: v18993-DL2 (conjugate, chains of the INN, looked up)
VH: EVQLVESGGGLVQPGGSLRLSCAASGFSFSDFAMSWVRQAPGKGLEWVATIGRVAFHTYYPDSMKGRFTISRDNSKNTLYLQMNSLRAEDTAVYYCARHRGFDVGHFDFWGQGTLVTVSS
VL: DIQMTQSPSSLSASVGDRVTITCRSSETLVHSSGNTYLEWYQQKPGKAPKLLIYRVSNRFSGVPSRFSGSGSGTDFTLTISSLQPEDFATYYCFQGSFNPLTFGQGTKVEIK
modifications: drug-linker DL2
B2: v18993-DL1 (conjugate, chains of the INN, looked up)
VH: EVQLVESGGGLVQPGGSLRLSCAASGFSFSDFAMSWVRQAPGKGLEWVATIGRVAFHTYYPDSMKGRFTISRDNSKNTLYLQMNSLRAEDTAVYYCARHRGFDVGHFDFWGQGTLVTVSS
VL: DIQMTQSPSSLSASVGDRVTITCRSSETLVHSSGNTYLEWYQQKPGKAPKLLIYRVSNRFSGVPSRFSGSGSGTDFTLTISSLQPEDFATYYCFQGSFNPLTFGQGTKVEIK
modifications: drug-linker DL1
B3: v29452: humanized anti-NaPi2b IgG1/kappa antibody H1L3; VH SEQ ID NO:24, VL SEQ ID NO:30 (antibody, V domains shown)
VH: QVQLVQSGAEVKKPGASVKVSCKASGFTFTSYNVHWVRQAPGQGLEWMGAISPGNGDLSYAQKFQGRVTMTRDTSTSTVYMELSSLRSEDTAVYYCARGRTGMGAVDYWGQGTLVTVSS
VL: DVQMTQSPSSLSASVGDRVTITCRASQDVYSYLNWYQQKPGKAVKLLIYYTSRLQSGVPSRFSGSGSGTDYTLTISSLQPEDIATYYCQQYNIFPWTFGQGTKLEIK
modifications: v29452, v29456, v29460 VH (H1); v29449, v29450, v29451, v29452 VL (L3)

Experiments:
[1] = target: T1, NaPi2b expressed on IGROV-1 cells (Homo sapiens, UniProt O95436); assay: Cellular binding of bivalent antibodies to IGROV-1 cells by flow cytometry (Example 13); details: IGROV-1, 24 hours at 4° C., NB = no cellular binding
T1 construct: IGROV-1 cells express endogenous NaPi2b at a high level; endogenous in cells; host or cells: IGROV-1
T1 sequence (O95436 1-690): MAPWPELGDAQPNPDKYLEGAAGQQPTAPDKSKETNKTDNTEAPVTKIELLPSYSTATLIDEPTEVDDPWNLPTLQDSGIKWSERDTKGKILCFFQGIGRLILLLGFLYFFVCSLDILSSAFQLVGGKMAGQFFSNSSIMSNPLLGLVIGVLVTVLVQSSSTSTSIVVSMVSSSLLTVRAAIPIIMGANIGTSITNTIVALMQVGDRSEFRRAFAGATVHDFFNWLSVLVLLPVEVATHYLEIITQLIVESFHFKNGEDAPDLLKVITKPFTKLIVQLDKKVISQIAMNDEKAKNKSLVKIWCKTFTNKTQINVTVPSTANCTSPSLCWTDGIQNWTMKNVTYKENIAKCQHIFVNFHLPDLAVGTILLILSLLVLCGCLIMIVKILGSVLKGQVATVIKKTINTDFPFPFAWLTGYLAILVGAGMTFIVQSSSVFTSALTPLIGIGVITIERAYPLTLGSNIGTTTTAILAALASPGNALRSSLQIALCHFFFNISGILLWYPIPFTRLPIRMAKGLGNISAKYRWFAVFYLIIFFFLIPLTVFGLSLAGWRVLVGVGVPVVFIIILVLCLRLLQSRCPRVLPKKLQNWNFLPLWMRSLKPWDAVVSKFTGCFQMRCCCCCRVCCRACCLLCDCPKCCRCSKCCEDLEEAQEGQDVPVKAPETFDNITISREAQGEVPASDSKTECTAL
Experimental: IGROV-1 cells express endogenous NaPi2b at a high level.
Briefly, cells were seeded at 50,000 cells/well in conical-bottom 96-well plates and treated with test antibody for 24 hours at 4° C. to prevent internalization. Palivizumab (anti-RSV antibody, v22277) was included as a negative control. […] Following incubation, cells were washed and stained with anti-Human IgG Fc AF647 conjugate (Jackson Immuno Research Labs, West Grove, PA; Cat. No. 109-605-098) at 4° C. for 30 min. Following incubation and washing, fluorescence was detected by flow cytometry on a BD LSRFortessa™ Cell Analyzer (BD Biosciences, Franklin Lake, NJ) with 1,000 minimum events collected per well. The AF647/APC-A GeoMean (fluorescence signal geometric mean, proportional to anti-Human AF647 binding) was calculated for the live cell population using FlowJo™ Version 10.8.1 (BD Biosciences, Franklin Lake, NJ) and plotted for each test antibody using GraphPad Prism Version 9 (GraphPad Software, San Diego, CA).

OVCAR-3 cells = assay: In vitro cytotoxicity, 2D monolayer, CellTiter-Glo, OVCAR-3; format: cell-based, human; details: OVCAR-3, 4 days; IC = Incomplete Curve
Experimental: (§1) The cytotoxicity as measured by cell growth inhibition of the humanized variant v29456 (H1L2) conjugated to various drug-linkers were assessed in a panel of NaPi2b-expressing cell lines as described below. Cell lines used were OVCAR-3 (ovarian carcinoma), IGROV-1 (ovarian carcinoma), and HCC-78 (lung carcinoma). ADCs with antibody palivizumab (anti-RSV) (v22277) were used as non-targeted controls.
(§2) OVCAR-3 were cultured in RPMI 1640 Medium, ATCC modification (Thermo Fisher Scientific, Waltham, MA) supplemented with 20% fetal bovine serum (FBS) (Thermo Fisher Scientific, Waltham, MA) and 0.01 μg/mL human insulin (Sigma-Aldrich, Oakville, ON). […] After incubation, CellTiter-Glo® reagent (Promega Corporation, Madison, WI) was added in all wells and luminescence corresponding to ATP present in each well was measured using a Synergy™H1 plate reader (BioTek Instruments, Winooski, VT). Percent cytotoxicity values were calculated by the following formula: (1−(Luminescence of Treated Cells/Average Luminescence of Untreated Cells))×100, and plotted against test article concentration using GraphPad Prism 9 software (GraphPad Software, San Diego, CA). EC50 values were calculated based on a non-linear regression log(agonist) versus response, variable slope (four parameters) by GraphPad Prism 9.

HCC-78 cells = assay: In vitro cytotoxicity, 2D monolayer, CellTiter-Glo, HCC-78; format: cell-based, human; details: HCC-78, 4 days
Experimental: as §1, §2

IGROV-1 cells = assay: In vitro cytotoxicity, 2D monolayer, CellTiter-Glo, IGROV-1; format: cell-based, human; details: IGROV-1, 4 days
Experimental: as §1, §2

[2] = NS-ELISA non-specific binding, heparin; details: mAb at 100 nM
Experimental: (§3) The isoelectric point was measured by capillary isoelectric focusing (cIEF), the propensity for self-aggregation was measured by Affinity-capture self-interaction nanoparticle spectroscopy (AC-SINS) and non-specific binding was measured by NS-ELISA, as described below.
(§4) NS-ELISA was used to measure the propensity of the antibodies to bind to a range of biomolecules to emulate the undesirable non-specific interactions to biological matrices in vivo as described below.
(§5) NS-ELISA was carried out in Corning®96-well EIA/RIA Easy Wash™ Clear Flat Bottom Polystyrene High Bind Microplate coated overnight at 4° C. with 50 μL of Heparin (Sigma, H3149) diluted with 50 mM sodium carbonate pH 9.6 to a final concentration of 250 μg/mL. The plate was incubated for 2 days at room temperature, wells that were coated with heparin were not covered to allow air dry. […] Reactions were stopped after approximately 10 minutes by adding 100 μL of 1 M HCl to each well, and absorbance was read at 450 nm. Binding scores were calculated as the ratio of the ELISA signal of the antibody (antibody-treated) to the signal of a well containing buffer instead of the primary antibody (untreated). The cutoffs considered for each binding molecule (ssDNA, KLH, insulin, dsDNA and heparin) were internally calculated, based on the average of Zymeworks Inc. produced antibodies and antibodies benchmarks published in the literature.

[3] = Thermal stability by differential scanning calorimetry (DSC); format: physicochemical; details: 0.4 mg/mL in PBS, scan 20° C. to 100° C. at 60° C./hr
Experimental: The thermal stability of the humanized antibody variants was assessed by differential scanning calorimetry (DSC) as described below.
400 μL of purified samples primarily at concentrations of 0.4 mg/mL in PBS were used for DSC analysis with a VP-Capillary DSC (Malvern Panalytical Inc., Westborough, MA). At the start of each DSC run, 5 buffer blank injections were performed to stabilize the baseline, and a buffer injection was placed before each sample injection for referencing. Each sample was scanned from 20° C. to 100° C. at a 60° C./hr rate, with low feedback, 8 sec filter, 3 min pre-scan thermostat, and 70 psi nitrogen pressure. The resulting thermograms were referenced and analyzed using Origin 7 software (OriginLab Corporation, Northampton, MA) to determine melting temperature (Tm) as an indicator of thermal stability.

dsDNA = assay: NS-ELISA non-specific binding, dsDNA; details: mAb at 100 nM
Experimental: as §3, §4, §5

[4] = Capillary isoelectric focusing (cIEF); format: physicochemical; details: main isoform; 0.5 mg/mL
Experimental: as §3
cIEF was carried out using Maurice C. (ProteinSimple®) system, System Suitability Kit and Method Development Kit. System suitability standard, fluorescence calibration standard, cartridge and samples were prepared according to vendor's recommendations. The capillary was automatically calibrated with a fluorescence standard preconditioned with Maurice cIEF System Suitability Kit to ensure the capillary was functioning properly. The antibody samples were diluted to a concentration of 0.5 mg/mL in a final volume of 40 μL in Gibco™ Distilled Water, and mixed Maurice cIEF Method Development Kit Samples. The samples were then vortexed, centrifuged and the supernatant pipetted into individual wells of a 96-well plate. All electropherograms were detected with UV absorbance at 280 nm. All data analyses were performed using vendor software Compass for iCE (ProteinSimple®).

ssDNA = assay: NS-ELISA non-specific binding, ssDNA; details: mAb at 100 nM
Experimental: as §3, §4, §5

Insulin = target: T2, Insulin (Homo sapiens, UniProt P01308); assay: NS-ELISA non-specific binding, insulin; details: mAb at 100 nM
T2 construct: purchased Sigma-Aldrich 19278
Experimental: as §3, §4, §5

T2 sequence (P01308 25-54 limits assumed): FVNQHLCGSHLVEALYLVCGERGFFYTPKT
T2 sequence (P01308 90-110 limits assumed): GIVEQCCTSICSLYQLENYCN

Molecule | Bmax (MFI) [1] | Curve Hill Slope (h) [1] | Kd ([1]; apparent Kd) [nM] | EC50 (OVCAR-3 cells) [nM] | EC50 (HCC-78 cells) [nM] | EC50 (IGROV-1 cells) [nM] | NS-ELISA binding score (ratio of signal between antibody-treated and untreated), Heparin [2] | Fab Tm [3] [°C] | NS-ELISA binding score (ratio of signal between antibody-treated and untreated), dsDNA (dsDNA) | cIEF pI [4] | NS-ELISA binding score (ratio of signal between antibody-treated and untreated), ssDNA (ssDNA) | NS-ELISA binding score (ratio of signal between antibody-treated and untreated), Insulin (Insulin)
B1 | 39,758 MFI | 1.1 | 3 | 0.49 | 1.77 | 2.12 |  |  |  |  |  | 
B2 |  |  |  |  | 5.45 | 3.45 |  |  |  |  |  | 
B3 | 47,763 MFI | 0.9 |  |  |  |  | 1.05 | 79.5 | 1.0 | 8.53 | 1.22 | 1.03
